B1: 14-3-3η (natural protein, human, UniProt Q04917 1-246, looked up)
chain: MGDREQLLQRARLAEQAERYDDMASAMKAVTELNEPLSNEDRNLLSVAYKNVVGARRSSWRVISSIEQKTMADGNEKKLEKVKAYREKIEKELETVCNDVLSLLDKFLIKNCNDFQYESKVFYLKMKGDYYRYLAEVASGEKKNSVVEASEAAYKEAFEISKEQMQPTHPIRLGLALNFSVFYYEIQNAPEQACLLAKQAFDDAIAELDTLNEDSYKDSTLIMQLLRDNLTLWTSDQQDEEAGEGN
B2: FITC-labelled 13-mer Amot-p130 peptide (peptide)
peptide: {FITC′}-GHVRSL[pS]ERLMQM
modifications: also: phosphoserine at 175 (S5 or S7)

Where two headings read alike, the source gives them in different places. Square brackets hold non-standard residues; d marks the D form. Primed or numbered codes have the meaning given here. Ends that are not written are not given here. FITC′ = fluorescein isothiocyanate fluorescent label; TAMRA = tetramethylrhodamine fluorescent label; Cy5 = cyanine-5 fluorescent label; pS = N[C@@H](COP(=O)(O)O)C(=O)O

Assay [1] concerns apo 14-3-3. The settings on record: ref Andrei et al., 2018; cited from earlier work.
The target of assay [2] is B2. The assay is described as follows: fluorescence polarisation. (Fluorescence polarisation rises when a labelled molecule tumbles more slowly, as on binding a larger partner.)
Assay [3] addresses T1, Cy5 labelled 13-mer Amot-p130 peptide (also: phosphoserine at 175 (S5 or S7)).
T1 peptide: Cy5-GHVRSL[pS]ERLMQM
The assay can be described thus: MST.

Assay [4] addresses T2, 14-3-3ζ (human, UniProt P63104 1-245).
T2 sequence (looked up): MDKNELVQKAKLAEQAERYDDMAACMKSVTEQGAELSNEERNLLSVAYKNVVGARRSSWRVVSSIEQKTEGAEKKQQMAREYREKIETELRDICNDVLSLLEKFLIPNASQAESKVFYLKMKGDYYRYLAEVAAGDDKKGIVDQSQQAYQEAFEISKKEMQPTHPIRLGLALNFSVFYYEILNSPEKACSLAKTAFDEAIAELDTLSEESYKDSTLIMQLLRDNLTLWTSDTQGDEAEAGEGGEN
The assay is described as follows: fluorescence polarisation.

Assay [5] concerns the target T3, 14-3-3τ (human, UniProt P27348 1-245).
T3 sequence (looked up): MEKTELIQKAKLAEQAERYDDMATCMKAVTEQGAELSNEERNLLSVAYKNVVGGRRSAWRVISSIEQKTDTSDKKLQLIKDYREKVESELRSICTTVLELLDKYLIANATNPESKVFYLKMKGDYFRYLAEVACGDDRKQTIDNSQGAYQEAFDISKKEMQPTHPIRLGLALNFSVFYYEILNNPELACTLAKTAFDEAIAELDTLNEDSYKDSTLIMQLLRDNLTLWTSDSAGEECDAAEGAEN
The assay can be described thus: fluorescence polarisation.

Assay [6] addresses T4, 14-3-3β (human, UniProt P31946 1-246).
T4 sequence (looked up): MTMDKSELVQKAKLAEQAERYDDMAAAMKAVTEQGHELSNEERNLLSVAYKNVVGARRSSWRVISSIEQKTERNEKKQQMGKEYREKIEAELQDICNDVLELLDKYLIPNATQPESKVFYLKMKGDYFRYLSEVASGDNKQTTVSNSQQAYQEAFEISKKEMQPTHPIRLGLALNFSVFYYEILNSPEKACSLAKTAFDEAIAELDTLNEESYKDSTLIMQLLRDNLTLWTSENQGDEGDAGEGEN
The assay is described as follows: fluorescence polarisation.

The target in assay [7] is T5, 14-3-3ε (human, UniProt P62258 1-255).
T5 sequence (looked up): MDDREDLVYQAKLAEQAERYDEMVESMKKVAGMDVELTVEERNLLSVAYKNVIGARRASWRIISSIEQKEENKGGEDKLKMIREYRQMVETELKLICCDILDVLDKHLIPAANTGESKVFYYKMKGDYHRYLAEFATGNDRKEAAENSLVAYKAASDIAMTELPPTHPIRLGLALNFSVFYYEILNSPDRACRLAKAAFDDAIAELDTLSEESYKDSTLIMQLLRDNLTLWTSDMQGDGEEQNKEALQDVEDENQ
The assay is described as follows: fluorescence polarisation.

In assay [8] the target is T6, 14-3-3σΔC (C-terminally truncated after T231) (human, UniProt P31947 1-231).
T6 sequence (looked up): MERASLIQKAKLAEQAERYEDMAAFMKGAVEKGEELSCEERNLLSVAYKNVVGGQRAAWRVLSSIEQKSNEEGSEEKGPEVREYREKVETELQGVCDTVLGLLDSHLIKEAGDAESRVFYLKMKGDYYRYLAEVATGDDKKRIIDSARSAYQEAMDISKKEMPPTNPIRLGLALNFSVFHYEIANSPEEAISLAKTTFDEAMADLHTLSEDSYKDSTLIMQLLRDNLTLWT
The assay can be described thus: crystal structure.

The target of assay [9] is T6, 14-3-3σΔC (C-terminally truncated after …). The assay can be described thus: crystal structure. This is another data set of the same source.
The target in assay [10] is B1. The assay can be described thus: fluorescence polarisation.

On to `C=CC(C)(C)OC[C@H]1O[C@H](O[C@@H]2C3=C([C@H](C)CNC(C)=O)C[C@H](O)[C@]3(C)/C=C3/[C@@H](COC)CC[C@H]3[C@@H](C)[C@H]2O)[C@H](O)[C@@H](O)[C@@H]1O` [FC-NAc], for which the “affinity for the apo 14-3-3” value in [1] is recorded as “higher affinity for the apo 14-3-3”.
With B1, the “fold stabilisation with 1 mM fragment 09 or 22 against the DMSO control” value in assay [2] and in [3] was 2 fold in each case.
In the case of B2, the binding result in assay [4], in assay [5], in [6] and in [7] was “binds” each time.
As for GHVRSL[pS]ERLMQM (not fully specified (C-terminus)) [13-mer Amot-p130 peptide (for crystallography)], the binding result in [8] is recorded as “binds”.
GHVRSL[pS]ERLMQMSLATSGV (not fully specified (C-terminus)) [20-mer Amot-p130 peptide (for crystallography)]: the binding result in [9] is “binds”.
{TAMRA}-GHVRSL[pS]ERLMQM (also: phosphoserine at 175 (S5 or S7)) [TAMRA-labelled 13-mer Amot-p130 peptide]: the binding result in assay [10] was “binds”.
